Assay results: patent publication US20110028686A1 (published 2011)
Where two headings read alike, the source gives them in different places. Square brackets hold non-standard residues; d marks the D form. Ends that are not written are not given here. pS = N[C@@H](COP(=O)(O)O)C(=O)O

What was measured:
HisKIX [1] = biological target: T1, HisKIX (UniProt P45481 586-672); test: FP, fluorescein-labelled peptide titrated with HisKIX, 25 C
T1 construct: range 586-672; the residue numbers fit mouse CBP; also called His-tagged CBP KIX domain; CBP KIX; not shown: amino-terminal hexahistidine tag and linker of pET15b
T1 sequence (P45481 586-672): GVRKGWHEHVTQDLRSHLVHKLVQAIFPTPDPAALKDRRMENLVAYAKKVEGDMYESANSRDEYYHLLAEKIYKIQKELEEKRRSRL

calmodulin (Sigma) [2] = biological target: T2, calmodulin (Sigma) (UniProt P62157 2-149); test: FP with calmodulin (text value; Table 2 prints 52 ± 12)
calmodulin (Sigma) [3] = biological target: T2, calmodulin (Sigma); test: FP, 50 nM fluorescein-labelled peptide titrated with calmodulin, 25 C
CBP KIX K662A [4] = biological target: T3, CBP KIX K662A (UniProt P45481 586-665, limits assumed); test: FP, 25 nM fluorescein-labelled ligand titrated with CBP KIX variant, 25 C
T3 construct: domain: KIX
T3 sequence (P45481 586-665 K662A limits assumed): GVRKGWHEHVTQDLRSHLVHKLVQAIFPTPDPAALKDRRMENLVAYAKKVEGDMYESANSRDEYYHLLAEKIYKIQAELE

CBP KIX Y658A [5] = biological target: T4, CBP KIX Y658A (UniProt P45481 586-665, limits assumed); test: as above
T4 construct: domain: KIX
T4 sequence (P45481 586-665 Y658A limits assumed): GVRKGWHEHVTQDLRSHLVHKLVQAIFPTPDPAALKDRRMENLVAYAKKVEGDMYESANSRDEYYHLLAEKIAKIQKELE

CBP KIX Y658F [6] = biological target: T5, CBP KIX Y658F (UniProt P45481 586-665, limits assumed); test: as above
T5 construct: domain: KIX
T5 sequence (P45481 586-665 Y658F limits assumed): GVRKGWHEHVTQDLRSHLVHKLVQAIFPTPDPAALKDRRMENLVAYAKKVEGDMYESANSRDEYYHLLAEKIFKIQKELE

[7] = biological target: T6, CBP KIX Y650A (Example 20) (UniProt P45481 586-665, limits assumed); test: as above
T6 construct: domain: KIX
T6 sequence (P45481 586-665 Y650A limits assumed): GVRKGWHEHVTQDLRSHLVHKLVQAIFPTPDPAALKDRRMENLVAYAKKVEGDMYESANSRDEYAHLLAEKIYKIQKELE

CBP KIX L603A [8] = biological target: T7, CBP KIX L603A (UniProt P45481 586-665, limits assumed); test: as above
T7 construct: domain: KIX
T7 sequence (P45481 586-665 L603A limits assumed): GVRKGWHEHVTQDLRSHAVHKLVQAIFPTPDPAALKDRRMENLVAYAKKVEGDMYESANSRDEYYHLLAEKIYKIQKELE

CBP KIX K606A [9] = biological target: T8, CBP KIX K606A (UniProt P45481 586-665, limits assumed); test: as above
T8 construct: domain: KIX
T8 sequence (P45481 586-665 K606A limits assumed): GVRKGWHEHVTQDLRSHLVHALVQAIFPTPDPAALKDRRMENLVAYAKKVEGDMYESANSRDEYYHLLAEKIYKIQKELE

CBP KIX LL652-3AA [10] = biological target: T9, CBP KIX LL652-3AA (UniProt P45481 586-665, limits assumed); test: as above
T9 construct: domain: KIX
T9 sequence (P45481 other isoform, or with tags, fused parts or gaps limits assumed): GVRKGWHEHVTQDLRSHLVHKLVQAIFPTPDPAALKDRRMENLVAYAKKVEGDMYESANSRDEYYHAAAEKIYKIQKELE

CBP KIX I657A [11] = biological target: T10, CBP KIX I657A (UniProt P45481 586-665, limits assumed); test: as above
T10 construct: domain: KIX; also called 1657A
T10 sequence (P45481 586-665 I657A limits assumed): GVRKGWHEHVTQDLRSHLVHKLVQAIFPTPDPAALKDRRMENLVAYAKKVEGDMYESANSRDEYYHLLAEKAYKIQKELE

CBP KIX E655A [12] = biological target: T11, CBP KIX E655A (UniProt P45481 586-665, limits assumed); test: as above
T11 construct: domain: KIX
T11 sequence (P45481 586-665 E655A limits assumed): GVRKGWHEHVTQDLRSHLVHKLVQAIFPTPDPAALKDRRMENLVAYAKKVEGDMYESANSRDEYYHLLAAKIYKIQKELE

CBP KIX I660A [13] = biological target: T12, CBP KIX I660A (UniProt P45481 586-665, limits assumed); test: as above
T12 construct: domain: KIX; also called 1660A
T12 sequence (P45481 586-665 I660A limits assumed): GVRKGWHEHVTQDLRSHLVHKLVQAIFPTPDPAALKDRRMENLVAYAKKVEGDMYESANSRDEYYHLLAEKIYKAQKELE

CBP KIX Q661A [14] = biological target: T13, CBP KIX Q661A (UniProt P45481 586-665, limits assumed); test: as above
T13 construct: domain: KIX
T13 sequence (P45481 586-665 Q661A limits assumed): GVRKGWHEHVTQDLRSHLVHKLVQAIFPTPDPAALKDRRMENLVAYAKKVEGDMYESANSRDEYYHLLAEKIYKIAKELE

[15] = biological target: T14, CBP KIX, wild type (Example 20) (UniProt P45481 586-665, limits assumed); test: FP, 25 nM fluorescein-labelled ligand titrated with CBP KIX, 25 C
T14 construct: domain: KIX; also called wild type CBP KIX; CBP MX
T14 sequence (P45481 586-665 limits assumed): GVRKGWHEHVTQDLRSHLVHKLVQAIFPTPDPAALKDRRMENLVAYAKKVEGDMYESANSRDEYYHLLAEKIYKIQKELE

[16] = biological target: carbonic anhydrase II (Sigma); test: FP, 50 nM fluorescein-labelled peptide titrated with carbonic anhydrase II, 25 C
Target sequence in this assay (chain, as listed by the source): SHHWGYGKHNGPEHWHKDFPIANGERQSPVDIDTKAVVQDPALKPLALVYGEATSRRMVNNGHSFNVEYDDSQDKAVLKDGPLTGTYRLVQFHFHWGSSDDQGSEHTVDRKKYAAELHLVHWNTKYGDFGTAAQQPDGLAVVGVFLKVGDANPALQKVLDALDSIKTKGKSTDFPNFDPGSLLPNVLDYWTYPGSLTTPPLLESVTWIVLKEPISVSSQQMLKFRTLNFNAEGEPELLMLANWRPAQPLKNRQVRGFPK

CBP KIX Y658A [17] = biological target: T4, CBP KIX Y658A; test: FP with CBP KIX variant (text value; Table 3 prints 3.9 ± 0.3)
[18] = biological target: T14, CBP KIX, wild type (Example 20); test: FP, fluorescein-labelled PPKID4^P titrated with CBP KIX
HisKIX [19] = biological target: T1, HisKIX; test: FP, fluorescein-labelled peptide titrated with HisKIX, 25 C; remark: listed apart in the source
[20] = biological target: T15, Human recombinant Bcl-2 (1-205), soluble GST-fusion (Santa Cruz Biotechnology) (human, UniProt P10415 1-205); test: fluorescence emission titration, fluorescein-labelled peptide + serially diluted Bcl-2, 4 C, PBS
T15 construct: Bought; also called GST-Bcl-2; not shown: glutathione S-transferase (GST) fusion partner
T15 sequence (P10415 1-205): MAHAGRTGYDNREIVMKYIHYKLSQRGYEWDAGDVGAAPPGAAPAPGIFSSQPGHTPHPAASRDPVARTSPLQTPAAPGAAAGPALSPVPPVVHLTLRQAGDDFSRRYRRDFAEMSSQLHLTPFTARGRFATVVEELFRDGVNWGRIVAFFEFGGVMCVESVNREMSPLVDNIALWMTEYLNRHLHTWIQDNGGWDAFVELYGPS

[21] = biological target: carbonic anhydrase II (Sigma); test: fluorescence emission titration, fluorescein-labelled peptide + carbonic anhydrase II, PBS
Target sequence in this assay (chain, as listed by the source): as the sequence (chain, as listed by the source) above

[22] = biological target: T15, Human recombinant Bcl-2 (1-205), …; test: fluorescence emission titration with Bcl-2
calmodulin (Sigma) [23] = biological target: T2, calmodulin (Sigma); test: fluorescence emission titration, fluorescein-labelled peptide + calmodulin (HEPES, KCl, CaCl2 buffer)
CBP KIX K662A [24] = biological target: T3, CBP KIX K662A; test: FP with CBP KIX variant
CBP KIX Y658A [25] = biological target: T4, CBP KIX Y658A; test: FP with CBP KIX variant
CBP KIX Y658F [26] = biological target: T5, CBP KIX Y658F; test: FP with CBP KIX variant
[27] = biological target: T6, CBP KIX Y650A (Example 20); test: FP with CBP KIX variant
CBP KIX L603A [28] = biological target: T7, CBP KIX L603A; test: FP with CBP KIX variant
CBP KIX L599A [29] = biological target: T16, CBP KIX L599A (UniProt P45481 586-665, limits assumed); test: FP with CBP KIX variant
T16 construct: domain: KIX
T16 sequence (P45481 586-665 L599A limits assumed): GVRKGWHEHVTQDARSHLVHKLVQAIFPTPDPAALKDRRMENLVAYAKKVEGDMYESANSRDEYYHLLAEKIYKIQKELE

CBP KIX K606A [30] = biological target: T8, CBP KIX K606A; test: FP with CBP KIX variant
CBP KIX LL652-3AA [31] = biological target: T9, CBP KIX LL652-3AA; test: FP with CBP KIX variant
CBP KIX I657A [32] = biological target: T10, CBP KIX I657A; test: FP with CBP KIX variant
CBP KIX E655A [33] = biological target: T11, CBP KIX E655A; test: FP with CBP KIX variant
CBP KIX I660A [34] = biological target: T12, CBP KIX I660A; test: FP with CBP KIX variant
CBP KIX Q661A [35] = biological target: T13, CBP KIX Q661A; test: FP with CBP KIX variant
CBP KIX L599A [36] = biological target: T16, CBP KIX L599A; test: FP, 25 nM fluorescein-labelled ligand titrated with CBP KIX variant, 25 C
calmodulin (Sigma) [37] = biological target: T2, calmodulin (Sigma); test: FP; specificity ratio
HisKIX [38] = biological target: T1, HisKIX; test: FP with HisKIX; end of the range assigned by Table 1
[39] = biological target: carbonic anhydrase II (Sigma); test: FP, 50 nM fluorescein-labelled peptide titrated with carbonic anhydrase II, 25 C; remark: listed apart in the source
Target sequence in this assay (P00921 2-260): as the sequence (chain, as listed by the source) above

calmodulin (Sigma) [40] = biological target: T2, calmodulin (Sigma); test: FP with calmodulin
HisKIX [41] = biological target: T1, HisKIX; test: FP with HisKIX

Binder | Kd (HisKIX [1]) [µM] | Kd (calmodulin (Sigma) [3]) [µM] | Kd (CBP KIX K662A [4]) [µM] | Kd (CBP KIX Y658A [5]) [µM] | Kd (CBP KIX Y658F [6]) [µM] | Kd [7] [µM] | Kd (CBP KIX L603A [8]) [µM] | Kd (CBP KIX K606A [9]) [µM] | Kd (CBP KIX LL652-3AA [10]) [µM] | Kd (CBP KIX I657A [11]) [µM] | Kd (CBP KIX E655A [12]) [µM] | Kd (CBP KIX I660A [13]) [µM] | Kd (CBP KIX Q661A [14]) [µM] | Kd [15] [µM] | Kd [16] [µM] | Kd (HisKIX [19]) [µM] | Kd [20] [µM] | Kd [21] [µM] | Kd (calmodulin (Sigma) [23]) [µM] | ΔΔG relative to wild type CBP KIX (CBP KIX K662A [24]) [kJ/mol] | other results
GPSQPTYPGDDAPVRRL[pS]FFYILLDLYLDAPGVC(acetamidofluorescein)-NH2 (designed binder, also called PPKID4 (phosphorylated)) [PPKID4^P] | 0.515 | 52 | 3.9 | 3.9 | 4.1 | 3 | 3.4 | 3.1 | 2.9 | 2.7 | 0.54 | 1.1 | 1.1 | 0.61 | 106 | 0.515 |  |  |  |  | Kd (calmodulin (Sigma) [2]): 51 µM; Kd (CBP KIX Y658A [17]): 4.1 µM; Kd [18]: 0.61 µM
GPSQPTYPGDDAPVEDLIRFVGRLLAYFGDTINRYC(5‑iodoacetamidofluorescein)-NH2 (designed binder, also called p4121-flu (labelled form, by order and mass)) [p4099] |  |  |  |  |  |  |  |  |  |  |  |  |  |  |  |  | 0.352 | 8.6 | 25 |  | fold better binding than p4101 [22]: ~2 fold
GISWPTFEGDDAPVRRLSFFYILLDLYLDAPGVC(acetamidofluorescein)-NH2 (designed binder, also called PPKID6 (unphosphorylated)) [PPKID6^U] | 1.5 | > 168 | 1.8 | 1.7 | 2.8 | 1.3 | 2.5 | 1.2 | 0.14 | 3.6 | 1.7 | 6.1 | 0.41 | 0.54 | 79 | 1.5 |  |  |  | 2.97 | ΔΔG relative to wild type CBP KIX (CBP KIX Y658A [25]): 2.85 kJ/mol; ΔΔG relative to wild type CBP KIX (CBP KIX Y658F [26]): 4.06 kJ/mol; ΔΔG relative to wild type CBP KIX [27]: 2.18 kJ/mol; ΔΔG relative to wild type CBP KIX (CBP KIX L603A [28]): 3.81 kJ/mol; ΔΔG relative to wild type CBP KIX (CBP KIX L599A [29]): 4.6 kJ/mol; ΔΔG relative to wild type CBP KIX (CBP KIX K606A [30]): 1.97 kJ/mol; ΔΔG relative to wild type CBP KIX (CBP KIX LL652-3AA [31]): -3.35 kJ/mol; ΔΔG relative to wild type CBP KIX (CBP KIX I657A [32]): 4.6 kJ/mol; ΔΔG relative to wild type CBP KIX (CBP KIX E655A [33]): 2.85 kJ/mol; ΔΔG relative to wild type CBP KIX (CBP KIX I660A [34]): 5.86 kJ/mol; ΔΔG relative to wild type CBP KIX (CBP KIX Q661A [35]): -0.669 kJ/mol; Kd (CBP KIX L599A [36]): 3.3 µM; Krel = Kd (CalM)/Kd (HisKIX) (calmodulin (Sigma) [37]): > 112; fold enhancement in affinity over KID-AB^U (HisKIX [38]): ≥ 77 fold; fold enhancement in affinity over KID-B^U (HisKIX [38]): ≥ 198 fold; fold enhancement in affinity over peptide C^U (HisKIX [38]): 7 to 14 fold
GQVGRQLAIIGDDINRYC-NH2 (not fully specified (residue 18), Labelled form used for Kd determinations carries an additional carboxy-terminal YC; The printed mass (1724) looks too small for residues 72-94; also called Bak BH3 peptide; Bak (72-94)) [Bak peptide] |  |  |  |  |  |  |  |  |  |  |  |  |  |  |  |  | 0.363 | 22 | 25 |  | 
RRL[pS]FFYILLDLYLDAPGVC(acetamidofluorescein)-NH2 (Chimeric alpha-helical portion of the PPKID peptides (residues 15-33); also called Peptide C (phosphorylated)) [peptide C^P] |  | 178 |  |  |  |  |  |  |  |  |  |  |  |  |  |  |  |  |  |  | Kd [39]: 97 µM; fold lower affinity than PPKID4^P (calmodulin (Sigma) [40]): 4 fold; fold increase in affinity over KID-B^P (HisKIX [41]): > 20 fold; fold lower affinity than PPKID4^P (HisKIX [41]): 5 fold; ΔΔG relative to KID-B^P (HisKIX [41]): -7.53 kJ/mol; Krel = Kd (CalM)/Kd (HisKIX) (calmodulin (Sigma) [37]): 74
TDSQKRREILSRRP[pS]YRKILNDLSSDAPGVC-NH2 (also: C-terminal Cys acetamidofluorescein-labelled in direct assays, unlabelled as competitor, CREB KID residues 119-148 (A and B helices) plus a C-terminal Cys; also called KID-AB (phosphorylated); CREB KID^P) [KID-AB^P] |  |  | 4.8 | 142 | 26 | 9.4 | 3.4 | 2.3 | 2.9 | 1.9 | 0.71 | 0.27 | 0.93 | 0.41 |  | 0.562 |  |  |  | 6.28 | ΔΔG relative to wild type CBP KIX (CBP KIX Y658A [25]): 14.6 kJ/mol; ΔΔG relative to wild type CBP KIX (CBP KIX Y658F [26]): 10.5 kJ/mol; ΔΔG relative to wild type CBP KIX [27]: 7.53 kJ/mol; ΔΔG relative to wild type CBP KIX (CBP KIX L603A [28]): 5.02 kJ/mol; ΔΔG relative to wild type CBP KIX (CBP KIX L599A [29]): 2.43 kJ/mol; ΔΔG relative to wild type CBP KIX (CBP KIX K606A [30]): 4.18 kJ/mol; ΔΔG relative to wild type CBP KIX (CBP KIX LL652-3AA [31]): 5.02 kJ/mol; ΔΔG relative to wild type CBP KIX (CBP KIX I657A [32]): 3.77 kJ/mol; ΔΔG relative to wild type CBP KIX (CBP KIX E655A [33]): 1.34 kJ/mol; ΔΔG relative to wild type CBP KIX (CBP KIX I660A [34]): -1.09 kJ/mol; ΔΔG relative to wild type CBP KIX (CBP KIX Q661A [35]): 2.01 kJ/mol; Kd (CBP KIX L599A [36]): 1.1 µM; ΔΔG upon phosphorylation (HisKIX [41]): > 13.4 kJ/mol
